Reference: patent US8663655B2, “Method for transforming a bacterium belonging to the Streptococcus genus by natural competence” (Dupont Nutrition Biosciences APS, dated 2014)
Like-named read-outs stand apart in the source and are kept apart here. One block for each molecule: values may come before it.

Assays:
[1] = biological target: STER-0316 homologue of S. thermophilus CNRZ1066 (Streptococcus thermophilus CNRZ1066)
[2] = biological target: STER-0316 homologue of S. thermophilus CNRZ1066 (Streptococcus thermophilus CNRZ1066); remark: listed apart in the source
[3] = biological target: STER-0316 homologue of S. thermophilus LMG18311 (Streptococcus thermophilus LMG18311)
[4] = biological target: T1, transcriptional regulator (Rgg) STER-0316 (Streptococcus thermophilus LMD-9); assay: cell-based or functional assay
T1 chain: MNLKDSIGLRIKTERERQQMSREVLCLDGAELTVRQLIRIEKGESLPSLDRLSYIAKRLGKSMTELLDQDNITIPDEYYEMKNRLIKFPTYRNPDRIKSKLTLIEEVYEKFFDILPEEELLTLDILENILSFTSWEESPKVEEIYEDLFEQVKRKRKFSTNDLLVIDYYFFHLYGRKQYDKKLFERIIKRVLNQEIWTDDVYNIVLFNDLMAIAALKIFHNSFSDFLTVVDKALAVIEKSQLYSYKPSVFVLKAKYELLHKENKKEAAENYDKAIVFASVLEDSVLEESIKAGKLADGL

[5] = biological target: STER-0316 homologue of S. thermophilus CNRZ1066 (Streptococcus thermophilus CNRZ1066); remark: listed apart in the source
[6] = biological target: STER-0316 homologue of S. thermophilus LMG18311 (Streptococcus thermophilus LMG18311); remark: listed apart in the source

- Transformation rate of S. thermophilus CNRZ1066 with peptide addition (1 µM) [1]: 3.48e-07
Molecule: synthetic peptide PYFTGCL

- Transformation rate of S. thermophilus CNRZ1066 with peptide addition (1 µM), donor pGIUD0855cat [2]: 0.03
- Transformation rate of S. thermophilus LMG18311 with peptide addition (1 µM), donor pGIUD0855cat [3]: 0.13
- Transformation rate with peptide addition (1 µM) [4]: 0.00318
B1: synthetic peptide LPYFAGCL (peptide)
peptide: LPYFAGCL

- Transformation rate with peptide addition (1 µM) [4]: 0.00342
B2: synthetic peptide ILPYFAGCL (peptide)
peptide: ILPYFAGCL

- Transformation rate with peptide addition (1 µM) [4]: < 1e-08
B3: synthetic peptide PYFAG (peptide)
peptide: PYFAG

- Transformation rate with peptide addition (1 µM) [4]: 0.00221
B4: synthetic peptide AILPYFAGCL (peptide)
peptide: AILPYFAGCL

- Transformation rate with peptide addition (1 µM) [4]: < 1e-08
B5: synthetic peptide ILPYFAG (peptide)
peptide: ILPYFAG

- Transformation rate with peptide addition (1 µM) [4]: < 1e-08
B6: synthetic peptide AILPYFAGC (peptide)
peptide: AILPYFAGC

- Transformation rate with peptide addition (1 µM) [4]: < 1e-08
B7: synthetic peptide LPYFAGC (peptide)
peptide: LPYFAGC

- Transformation rate with peptide addition (1 µM) [4]: < 1e-08
B8: synthetic peptide PYFAGC (peptide)
peptide: PYFAGC

- Transformation rate with peptide addition (1 µM) [4]: < 1e-08
B9: synthetic peptide ILPYFAGC (peptide)
peptide: ILPYFAGC

- Transformation rate of S. thermophilus CNRZ1066 with peptide addition (1 µM) [5]: 0.000369
- Transformation rate of S. thermophilus LMG18311 with peptide addition (1 µM) [6]: 0.000317
- Transformation rate with peptide addition (1 µM) [4]: 0.00478
B10: synthetic peptide PYFAGCL (peptide)
peptide: PYFAGCL
